Measurements as given in the supplement of paper PMC5998384.

Key:
[1] = tested on: HeLa Kyoto; assay: solubility change mitosis vs G1/S (difference of NP-40 vs SDS log2 ratios) (log2 ratio difference); higher = more soluble in mitosis
[2] = tested on: HeLa Kyoto; assay: solubility in G1/S (NP-40 vs SDS abundance) (log2 ratio); higher = more soluble; conditions: cell cycle stage: G1/S
[3] = tested on: HeLa Kyoto; assay: melting temperature (median over replicates), in situ; higher = more thermally stable
[4] = tested on: HeLa Kyoto; assay: thermal stability score vs G1/S (z-score of summed log2 fold changes over temperatures); higher = more thermally stable than in G1/S
[5] = cell cycle stage: early G1 (4.5 h after nocodazole release)
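For melting temperature (median over replicates), in situ in this document: HeLa Kyoto cells synchronized by double thymidine or nocodazole block, proteins quantified by TMT10plex mass spectrometry, three independent biological replicates.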
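For solubility change mitosis vs G1/S (difference of NP-40 vs SDS log2 ratios) in this document: synchronized HeLa Kyoto cells (double thymidine block for G1/S, nocodazole release for mitosis), protein amounts in NP-40 versus SDS lysates quantified by mass spectrometry, three biological replicates.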
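For solubility in G1/S (NP-40 vs SDS abundance) in this document: HeLa Kyoto cells arrested at G1/S by double thymidine block, proteins quantified by TMT10plex mass spectrometry in mild NP-40 versus SDS extracts, three biological replicates.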
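For thermal stability score vs G1/S (z-score of summed log2 fold changes over temperatures) in this document: synchronized HeLa Kyoto cells, proteins quantified by TMT10plex mass spectrometry, three biological replicates, mitosis taken 0.5 h after nocodazole release, G1/S directly after double thymidine block.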

Sequence: MLNVPSQSFPAPRSQQRVASGGRSKVPLKQGRSLMDWIRLTKSGKDLTGLKGRLIEVTEEELKKHNKKDDCWICIRGFVYNVSPYMEYHPGGEDELMRAAGSDGTELFDQVHRWVNYESMLKECLVGRMAIKPAVLKDYREEEKKVLNGMLPKSQVTDTLAKEGPSYPSYDWFQTDSLVTIAIYTKQKDINLDSIIVDHQNDSFRAETIIKDCLYLIHIGLSHEVQEDFSVRVVESVGKIEIVLQKKENTSWDFLGHPLKNHNSLIPRKDTGLYYRKCQLISKEDVTHDTRLFCLMLPPSTHLQVPIGQHVYLKLPITGTEIVKPYTPVSGSLLSEFKEPVLPNNKYIYFLIKIYPTGLFTPELDRLQIGDFVSVSSPEGNFKISKFQELEDLFLLAAGTGFTPMVKILNYALTDIPSLRKVKLMFFNKTEDDIIWRSQLEKLAFKDKRLDVEFVLSAPISEWNGKQGHISPALLSEFLKRNLDKSKVLVCICGPVPFTEQGVRLLHDLNFSKNEIHSFTA [CYB5R4]
- solubility change mitosis (log2) [1]: -0.0937
- solubility in G1/S (log2) [2]: 0.0176
- melting temperature ([3]; cell cycle stage: G1/S): 53.6 °C
- melting temperature ([3]; cell cycle stage: mitosis): 53.7 °C
- thermal stability score [4, 5]: -0.0239
- thermal stability score ([4]; cell cycle stage: mitosis): -0.629

Sequence: MLPARLPFRLLSLFLRGSAPTAARHGLREPLLERRCAAASSFQHSSSLGRELPYDPVDTEGFGEGGDMQERFLFPEYILDPEPQPTREKQLQELQQQQEEEERQRQQRREERRQQNLRARSREHPVVGHPDPALPPSGVNCSGCGAELHCQDAGVPGYLPREKFLRTAEADGGLARTVCQRCWLLSHHRRALRLQVSREQYLELVSAALRRPGPSLVLYMVDLLDLPDALLPDLPALVGPKQLIVLGNKVDLLPQDAPGYRQRLRERLWEDCARAGLLLAPGHQGPQRPVKDEPQDGENPNPPNWSRTVVRDVRLISAKTGYGVEELISALQRSWRYRGDVYLVGATNAGKSTLFNTLLESDYCTAKGSEAIDRATISPWPGTTLNLLKFPICNPTPYRMFKRHQRLKKDSTQAEEDLSEQEQNQLNVLKKHGYVVGRVGRTFLYSEEQKDNIPFEFDADSLAFDMENDPVMGTHKSTKQVELTAQDVKDAHWFYDTPGITKENCILNLLTEKEVNIVLPTQSIVPRTFVLKPGMVLFLGAIGRIDFLQGNQSAWFTVVASNILPVHITSLDRADALYQKHAGHTLLQIPMGGKERMAGFPPLVAEDIMLKEGLGASEAVADIKFSSAGWVSVTPNFKDRLHLRGYTPEGTVLTVRPPLLPYIVNIKGQRIKKSVAYKTKKPPSLMYNVRKKKGKINV [NOA1]
- solubility change mitosis (log2) [1]: -0.187
- solubility in G1/S (log2) [2]: 0.131
- melting temperature ([3]; cell cycle stage: G1/S): 49.8 °C
- melting temperature ([3]; cell cycle stage: mitosis): 50.1 °C
- thermal stability score [4, 5]: -0.456
- thermal stability score ([4]; cell cycle stage: mitosis): 0.655

Sequence: MLPGLAAAAAHRCSWSSLCRLRLRCRAAACNPSDRQEWQNLVTFGSFSNMVPCSHPYIGTLSQVKLYSTNVQKEGQGSQTLRVEKVPSFETAEGIGTELKAPLKQEPLQVRVKAVLKKREYGSKYTQNNFITGVRAINEFCLKSSDLEQLRKIRRRSPHEDTESFTVYLRSDVEAKSLEVWGSPEALAREKKLRKEAEIEYRERLFRNQKILREYRDFLGNTKPRSRTASVFFKGPGKVVMVAICINGLNCFFKFLAWIYTGSASMFSEAIHSLSDTCNQGLLALGISKSVQTPDPSHPYGFSNMRYISSLISGVGIFMMGAGLSWYHGVMGLLHPQPIESLLWAYCILAGSLVSEGATLLVAVNELRRNARAKGMSFYKYVMESRDPSTNVILLEDTAAVLGVIIAATCMGLTSITGNPLYDSLGSLGVGTLLGMVSAFLIYTNTEALLGRSIQPEQVQRLTELLENDPSVRAIHDVKATDLGLGKVRFKAEVDFDGRVVTRSYLEKQDFDQMLQEIQEVKTPEELETFMLKHGENIIDTLGAEVDRLEKELKKRNPEVRHVDLEIL [SLC30A9]
- solubility change mitosis (log2) [1]: -0.0502
- solubility in G1/S (log2) [2]: -0.0134
- melting temperature ([3]; cell cycle stage: G1/S): 51.1 °C
- melting temperature ([3]; cell cycle stage: mitosis): 51.9 °C
- thermal stability score [4, 5]: -0.0363
- thermal stability score ([4]; cell cycle stage: mitosis): -0.00857

Sequence: MLPHVVLTFRRLGCALASCRLAPARHRGSGLLHTAPVARSDRSAPVFTRALAFGDRIALVDQHGRHTYRELYSRSLRLSQEICRLCGCVGGDLREERVSFLCANDASYVVAQWASWMSGGVAVPLYRKHPAAQLEYVICDSQSSVVLASQEYLELLSPVVRKLGVPLLPLTPAIYTGAVEEPAEVPVPEQGWRNKGAMIIYTSGTTGRPKGVLSTHQNIRAVVTGLVHKWAWTKDDVILHVLPLHHVHGVVNALLCPLWVGATCVMMPEFSPQQVWEKFLSSETPRINVFMAVPTIYTKLMEYYDRHFTQPHAQDFLRAVCEEKIRLMVSGSAALPLPVLEKWKNITGHTLLERYGMTEIGMALSGPLTTAVRLPGSVGTPLPGVQVRIVSENPQREACSYTIHAEGDERGTKVTPGFEEKEGELLVRGPSVFREYWNKPEETKSAFTLDGWFKTGDTVVFKDGQYWIRGRTSVDIIKTGGYKVSALEVEWHLLAHPSITDVAVIGVPDMTWGQRVTAVVTLREGHSLSHRELKEWARNVLAPYAVPSELVLVEEIPRNQMGKIDKKALIRHFHPS [ACSF3]
- solubility change mitosis (log2) [1]: -0.0957
- solubility in G1/S (log2) [2]: -0.107
- melting temperature ([3]; cell cycle stage: G1/S): 49.3 °C
- melting temperature ([3]; cell cycle stage: mitosis): 49.7 °C
- thermal stability score [4, 5]: -0.21
- thermal stability score ([4]; cell cycle stage: mitosis): 1.59

Sequence: MLPVYQEVKPNPLQDANLCSRVFFWWLNPLFKIGHKRRLEEDDMYSVLPEDRSQHLGEELQGFWDKEVLRAENDAQKPSLTRAIIKCYWKSYLVLGIFTLIEESAKVIQPIFLGKIINYFENYDPMDSVALNTAYAYATVLTFCTLILAILHHLYFYHVQCAGMRLRVAMCHMIYRKALRLSNMAMGKTTTGQIVNLLSNDVNKFDQVTVFLHFLWAGPLQAIAVTALLWMEIGISCLAGMAVLIILLPLQSCFGKLFSSLRSKTATFTDARIRTMNEVITGIRIIKMYAWEKSFSNLITNLRKKEISKILRSSCLRGMNLASFFSASKIIVFVTFTTYVLLGSVITASRVFVAVTLYGAVRLTVTLFFPSAIERVSEAIVSIRRIQTFLLLDEISQRNRQLPSDGKKMVHVQDFTAFWDKASETPTLQGLSFTVRPGELLAVVGPVGAGKSSLLSAVLGELAPSHGLVSVHGRIAYVSQQPWVFSGTLRSNILFGKKYEKERYEKVIKACALKKDLQLLEDGDLTVIGDRGTTLSGGQKARVNLARAVYQDADIYLLDDPLSAVDAEVSRHLFELCICQILHEKITILVTHQLQYLKAASQILILKDGKMVQKGTYTEFLKSGIDFGSLLKKDNEESEQPPVPGTPTLRNRTFSESSVWSQQSSRPSLKDGALESQDTENVPVTLSEENRSEGKVGFQAYKNYFRAGAHWIVFIFLILLNTAAQVAYVLQDWWLSYWANKQSMLNVTVNGGGNVTEKLDLNWYLGIYSGLTVATVLFGIARSLLVFYVLVNSSQTLHNKMFESILKAPVLFFDRNPIGRILNRFSKDIGHLDDLLPLTFLDFIQTLLQVVGVVSVAVAVIPWIAIPLVPLGIIFIFLRRYFLETSRDVKRLESTTRSPVFSHLSSSLQGLWTIRAYKAEERCQELFDAHQDLHSEAWFLFLTTSRWFAVRLDAICAMFVIIVAFGSLILAKTLDAGQVGLALSYALTLMGMFQWCVRQSAEVENMMISVERVIEYTDLEKEAPWEYQKRPPPAWPHEGVIIFDNVNFMYSPGGPLVLKHLTALIKSQEKVGIVGRTGAGKSSLISALFRLSEPEGKIWIDKILTTEIGLHDLRKKMSIIPQEPVLFTGTMRKNLDPFNEHTDEELWNALQEVQLKETIEDLPGKMDTELAESGSNFSVGQRQLVCLARAILRKNQILIIDEATANVDPRTDELIQKKIREKFAHCTVLTIAHRLNTIIDSDKIMVLDSGRLKEYDEPYVLLQNKESLFYKMVQQLGKAEAAALTETAKQVYFKRNYPHIGHTDHMVTNTSNGQPSTLTIFETAL [ABCC4]
- solubility change mitosis (log2) [1]: -0.177
- solubility in G1/S (log2) [2]: -0.0872
- melting temperature ([3]; cell cycle stage: G1/S): 57.5 °C
- melting temperature ([3]; cell cycle stage: mitosis): 55.8 °C
- thermal stability score [4, 5]: -1.17
- thermal stability score ([4]; cell cycle stage: mitosis): -1.43
